The data set deals with S-adenosylmethionine synthetase. Put plainly: S-adenosylmethionine synthetase (MAT) activity in vitro in crude extracts, FIA-MS/MS. The class given is biochemical, E. coli. To be noted: 10 mM methionine, 10 mM ATP, 37° C., 30 minutes.

B1: MetK* S273F (protein, UniProt P0A817 2-384, looked up, variant S273F)
S-adenosylmethionine synthase: AKHLFTSESVSEGHPDKIADQISDAVLDAILEQDPKARVACETYVKTGMVLVGGEITTSAWVDIEEITRNTVREIGYVHSDMGFDANSCAVLSAIGKQSPDINQGVDRADPLEQGAGDQGLMFGYATNETDVLMPAPITYAHRLVQRQAEVRKNGTLPWLRPDAKSQVTFQYDDGKIVGIDAVVLSTQHSEEIDQKSLQEAVMEEIIKPILPAEWLTSATKFFINPTGRFVIGGPMGDCGLTGRKIIVDTYGGMARHGGGAFSGKDPSKVDRFAAYAARYVAKNIVAAGLADRCEIQVSYAIGVAEPTSIMVETFGTEKVPSEQLTLLVREFFDLRPYGLIQMLDLLHPIYKETAAYGHFGREHFPWEKTDKAQLLRDAAGLK
Consider B1, for which the “MAT (S-adenosylmethionine synthetase activity)” value is recorded as 2.2 mUI/mg prot.

These data come from patent US8795990B2, “Recombinant enzyme with altered feedback sensitivity” (Metabolic Explorer, priority 2004, dated 2014).
